{"source": "paper PMC4434323", "key": {"[1]": {"target": "T1, nhr-3 (H01A20.1) (Caenorhabditis elegans) (UniProt Q9XTJ4)", "T1 sequence": "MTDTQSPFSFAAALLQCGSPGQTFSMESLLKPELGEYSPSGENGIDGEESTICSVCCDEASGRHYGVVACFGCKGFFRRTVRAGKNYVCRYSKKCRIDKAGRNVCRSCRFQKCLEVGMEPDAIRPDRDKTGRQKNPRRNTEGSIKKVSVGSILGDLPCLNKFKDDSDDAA"}, "[2]": {"target": "nhr-34 (F58G6.5) (Caenorhabditis elegans) (UniProt Q21006)", "sequence (Q21006 99-268)": "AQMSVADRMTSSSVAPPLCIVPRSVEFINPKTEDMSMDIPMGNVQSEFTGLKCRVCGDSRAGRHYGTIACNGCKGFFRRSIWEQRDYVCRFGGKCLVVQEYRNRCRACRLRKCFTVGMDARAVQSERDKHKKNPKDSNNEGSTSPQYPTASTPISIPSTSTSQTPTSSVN"}, "[3]": {"target": "T2, nhr-46 (C45E5.6) (Caenorhabditis elegans) (UniProt Q95QR2)", "T2 sequence": "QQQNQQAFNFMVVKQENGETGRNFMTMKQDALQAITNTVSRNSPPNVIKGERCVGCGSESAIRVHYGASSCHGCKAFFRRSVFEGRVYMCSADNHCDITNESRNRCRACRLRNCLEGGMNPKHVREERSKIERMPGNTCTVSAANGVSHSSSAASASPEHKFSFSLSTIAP"}, "[4]": {"target": "T3, nhr-7 (F54D1.4) (Caenorhabditis elegans) (UniProt Q20765)", "T3 sequence": "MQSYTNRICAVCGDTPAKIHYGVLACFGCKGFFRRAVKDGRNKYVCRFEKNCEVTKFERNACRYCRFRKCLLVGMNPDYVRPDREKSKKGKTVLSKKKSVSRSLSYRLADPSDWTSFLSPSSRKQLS"}, "[5]": {"target": "T4, atf-5 (T04C10.4) (Caenorhabditis elegans) (UniProt Q22156)", "T4 sequence": "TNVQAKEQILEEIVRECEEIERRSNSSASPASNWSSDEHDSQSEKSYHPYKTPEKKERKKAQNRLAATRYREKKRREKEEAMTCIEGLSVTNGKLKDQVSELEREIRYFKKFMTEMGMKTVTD"}, "[6]": {"target": "atf-7 (C07G2.2) (Caenorhabditis elegans) (UniProt Q86MD3)", "sequence (Q86MD3 339-508)": "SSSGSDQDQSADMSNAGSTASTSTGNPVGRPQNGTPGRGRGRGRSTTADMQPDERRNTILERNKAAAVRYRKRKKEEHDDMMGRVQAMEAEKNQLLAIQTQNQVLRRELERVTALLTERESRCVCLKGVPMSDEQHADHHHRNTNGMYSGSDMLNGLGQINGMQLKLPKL"}, "[7]": {"target": "T5, xbp-1 (R74.3) (Caenorhabditis elegans) (UniProt G5EE07)", "T5 sequence": "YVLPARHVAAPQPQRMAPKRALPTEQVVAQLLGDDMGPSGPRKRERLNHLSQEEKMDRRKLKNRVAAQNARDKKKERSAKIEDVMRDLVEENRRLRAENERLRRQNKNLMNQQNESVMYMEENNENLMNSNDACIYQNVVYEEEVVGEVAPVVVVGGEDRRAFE"}, "[8]": {"target": "T6, zip-3 (W07G1.3) (Caenorhabditis elegans) (UniProt Q9XUK2)", "T6 sequence": "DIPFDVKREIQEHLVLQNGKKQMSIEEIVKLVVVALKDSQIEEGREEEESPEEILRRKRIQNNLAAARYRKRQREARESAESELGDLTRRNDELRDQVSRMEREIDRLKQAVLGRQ"}, "[9]": {"target": "T7, ref-2 (C47C12.3) (Caenorhabditis elegans) (UniProt Q7JNM3)", "T7 sequence": "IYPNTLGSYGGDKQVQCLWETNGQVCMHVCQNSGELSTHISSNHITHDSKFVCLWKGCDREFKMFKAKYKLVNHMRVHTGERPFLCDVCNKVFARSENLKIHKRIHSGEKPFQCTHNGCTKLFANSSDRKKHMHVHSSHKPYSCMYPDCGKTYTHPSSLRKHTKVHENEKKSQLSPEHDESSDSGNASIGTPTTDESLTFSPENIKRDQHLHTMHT"}, "[10]": {"target": "T8, F10B5.3 (F10B5.3) (Caenorhabditis elegans) (UniProt Q09534)", "T8 sequence": "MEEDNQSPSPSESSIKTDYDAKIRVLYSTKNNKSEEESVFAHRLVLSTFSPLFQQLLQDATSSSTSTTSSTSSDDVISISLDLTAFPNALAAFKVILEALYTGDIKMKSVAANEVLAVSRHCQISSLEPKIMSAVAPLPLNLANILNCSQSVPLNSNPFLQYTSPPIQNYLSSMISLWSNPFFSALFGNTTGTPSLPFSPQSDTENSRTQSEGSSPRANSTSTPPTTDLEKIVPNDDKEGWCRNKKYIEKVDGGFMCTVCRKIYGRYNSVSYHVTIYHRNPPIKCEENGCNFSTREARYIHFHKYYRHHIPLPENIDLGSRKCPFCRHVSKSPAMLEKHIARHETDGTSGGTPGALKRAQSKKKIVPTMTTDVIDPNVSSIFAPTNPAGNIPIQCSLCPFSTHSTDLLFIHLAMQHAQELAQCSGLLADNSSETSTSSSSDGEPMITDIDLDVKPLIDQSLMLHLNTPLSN"}, "[11]": {"target": "T9, hsf-1 (Y53C10A.12) (Caenorhabditis elegans) (UniProt G5EFT5)", "T9 sequence": "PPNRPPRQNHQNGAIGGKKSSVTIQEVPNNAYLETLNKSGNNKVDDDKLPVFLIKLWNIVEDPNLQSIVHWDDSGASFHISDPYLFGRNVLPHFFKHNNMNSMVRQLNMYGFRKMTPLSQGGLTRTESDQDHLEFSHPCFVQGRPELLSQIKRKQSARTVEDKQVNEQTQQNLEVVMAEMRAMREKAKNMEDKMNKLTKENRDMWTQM"}, "[12]": {"target": "T10, C46E10.8 (C46E10.8) (Caenorhabditis elegans) (UniProt O44719)", "T10 sequence": "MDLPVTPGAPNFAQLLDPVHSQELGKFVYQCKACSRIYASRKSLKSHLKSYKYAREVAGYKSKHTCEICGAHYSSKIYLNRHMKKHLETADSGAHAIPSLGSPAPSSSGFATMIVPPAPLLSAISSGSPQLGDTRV"}, "[13]": {"target": "T11, dmd-6 (F13G11.1) (Caenorhabditis elegans) (UniProt O62159)", "T11 sequence": "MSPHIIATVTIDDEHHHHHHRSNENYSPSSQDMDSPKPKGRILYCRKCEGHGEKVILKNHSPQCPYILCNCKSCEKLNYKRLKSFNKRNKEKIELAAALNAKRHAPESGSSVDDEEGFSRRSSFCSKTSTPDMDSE"}, "[14]": {"target": "T12, W08E12.1 (W08E12.1) (Caenorhabditis elegans) (UniProt Q9N5A8)", "T12 sequence": "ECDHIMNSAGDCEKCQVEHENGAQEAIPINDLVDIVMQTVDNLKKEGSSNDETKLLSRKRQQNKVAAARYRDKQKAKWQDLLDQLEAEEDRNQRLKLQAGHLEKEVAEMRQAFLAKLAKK"}, "[15]": {"target": "T13, Y51H4A.4 (Y51H4A.4) (Caenorhabditis elegans) (UniProt Q9NAE4)", "T13 sequence": "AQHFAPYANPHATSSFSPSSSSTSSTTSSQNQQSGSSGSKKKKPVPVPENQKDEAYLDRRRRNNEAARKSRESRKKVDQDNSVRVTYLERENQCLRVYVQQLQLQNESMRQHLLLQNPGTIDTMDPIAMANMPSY"}, "[16]": {"target": "T14, atf-6 (F45E6.2) (Caenorhabditis elegans) (UniProt Q20435)", "T14 sequence": "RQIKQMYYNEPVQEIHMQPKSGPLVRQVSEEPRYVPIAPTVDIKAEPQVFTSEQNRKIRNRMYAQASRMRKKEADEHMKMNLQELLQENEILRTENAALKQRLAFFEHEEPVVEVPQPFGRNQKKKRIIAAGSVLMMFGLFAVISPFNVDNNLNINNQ"}, "[17]": {"target": "T15, nhr-1 (R09G11.2) (Caenorhabditis elegans) (UniProt Q21878)", "T15 sequence": "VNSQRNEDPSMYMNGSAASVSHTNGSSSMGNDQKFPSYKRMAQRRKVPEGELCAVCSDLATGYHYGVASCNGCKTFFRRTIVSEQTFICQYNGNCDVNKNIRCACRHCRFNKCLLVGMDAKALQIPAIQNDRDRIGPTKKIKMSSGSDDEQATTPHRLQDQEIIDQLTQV"}}}
{"sequence": "AAGATCAA (double strand) [8-mer AAGATCAA]", "values": [{"measurement": "binding signal (PBM E-score (-0.5 to 0.5))", "setting": "[1]", "result": 0.486}, {"measurement": "binding signal (PBM E-score (-0.5 to 0.5))", "setting": "[2]", "result": 0.494}, {"measurement": "binding signal (PBM E-score (-0.5 to 0.5))", "setting": "[3]", "result": 0.496}, {"measurement": "binding signal (PBM E-score (-0.5 to 0.5))", "setting": "[4]", "result": 0.455}]}
{"sequence": "ATGACGTG (double strand) [8-mer ATGACGTG]", "values": [{"measurement": "binding signal (PBM E-score (-0.5 to 0.5))", "setting": "[5]", "result": 0.485}, {"measurement": "binding signal (PBM E-score (-0.5 to 0.5))", "setting": "[6]", "result": 0.499}, {"measurement": "binding signal (PBM E-score (-0.5 to 0.5))", "setting": "[7]", "result": 0.451}, {"measurement": "binding signal (PBM E-score (-0.5 to 0.5))", "setting": "[8]", "result": 0.494}]}
{"sequence": "CAGCGGGA (double strand) [8-mer CAGCGGGA]", "values": [{"measurement": "binding signal (PBM E-score (-0.5 to 0.5))", "setting": "[9]", "result": 0.483}]}
{"sequence": "TTCTAGAA (double strand) [8-mer TTCTAGAA]", "values": [{"measurement": "binding signal (PBM E-score (-0.5 to 0.5))", "setting": "[10]", "result": 0.477}, {"measurement": "binding signal (PBM E-score (-0.5 to 0.5))", "setting": "[11]", "result": 0.498}]}
{"sequence": "AATTTATA (double strand) [8-mer AATTTATA]", "values": [{"measurement": "binding signal (PBM E-score (-0.5 to 0.5))", "setting": "[12]", "result": 0.457}, {"measurement": "binding signal (PBM E-score (-0.5 to 0.5))", "setting": "[13]", "result": 0.471}]}
{"sequence": "TGACGTAA (double strand) [8-mer TGACGTAA]", "values": [{"measurement": "binding signal (PBM E-score (-0.5 to 0.5))", "setting": "[14]", "result": 0.47}, {"measurement": "binding signal (PBM E-score (-0.5 to 0.5))", "setting": "[15]", "result": 0.454}, {"measurement": "binding signal (PBM E-score (-0.5 to 0.5))", "setting": "[5]", "result": 0.49}, {"measurement": "binding signal (PBM E-score (-0.5 to 0.5))", "setting": "[16]", "result": 0.459}, {"measurement": "binding signal (PBM E-score (-0.5 to 0.5))", "setting": "[6]", "result": 0.495}]}
{"sequence": "AAAGATCA (double strand) [8-mer AAAGATCA]", "values": [{"measurement": "binding signal (PBM E-score (-0.5 to 0.5))", "setting": "[17]", "result": 0.472}, {"measurement": "binding signal (PBM E-score (-0.5 to 0.5))", "setting": "[1]", "result": 0.488}, {"measurement": "binding signal (PBM E-score (-0.5 to 0.5))", "setting": "[2]", "result": 0.485}, {"measurement": "binding signal (PBM E-score (-0.5 to 0.5))", "setting": "[3]", "result": 0.49}, {"measurement": "binding signal (PBM E-score (-0.5 to 0.5))", "setting": "[4]", "result": 0.476}]}
{"sequence": "TTCCAGAA (double strand) [8-mer TTCCAGAA]", "values": [{"measurement": "binding signal (PBM E-score (-0.5 to 0.5))", "setting": "[10]", "result": 0.491}, {"measurement": "binding signal (PBM E-score (-0.5 to 0.5))", "setting": "[11]", "result": 0.489}]}
{"sequence": "AATTTATG (double strand) [8-mer AATTTATG]", "values": [{"measurement": "binding signal (PBM E-score (-0.5 to 0.5))", "setting": "[12]", "result": 0.465}]}
